Reference: patent publication US20250388683A1 (VETOQUINOL, published 2025)
Like-named read-outs stand apart in the source and are kept apart here.

Assays:
Test in all cases: cell-based or functional assay
[1] = molecular target: T1, canine IL-31RA expressed on HEK-Blue STAT3 canine IL-31R reporter cells (with canine OSMR) (canine)
[2] = molecular target: T1, canine IL-31RA expressed on HEK-Blue …; remark: listed apart in the source
[3] = molecular target: T1, canine IL-31RA expressed on HEK-Blue …; remark: listed apart in the source
[4] = molecular target: T1, canine IL-31RA expressed on HEK-Blue …; remark: listed apart in the source

B1: scFv-VTQ2101-LHλcap-Fc (scFv-VTQ2101-LHλcap-GS18-Canine IgG2B-LALAPG-Fc) (Fc fusion)
scFv: RIVMTQSPGSLAGSVGESVSINCKSSQSVTNDLTWYQQKPGEAPKVLITYASQRYTGVPARFSGSGYGTDFTLTINNLQAEDVGDYFCQQDYASPFTFGGGTKLTVLGGSTSGGGSGGGSGGGGSSEVTLQESGPGLVKPSQTLSLTCVASGFSIKSSFIHWLRQRPGRGLEWIGRIDPAFGATEYNPAFQGRFSITADTAKNQASLQLSSMTTEDSAVYYCARYHYAASHFDAWGQGTLVTVSSPKRENGRVPRPPDCPKCPAPEAAGGPSVFIFPPKPKDTLLIARTPEVTCVVVDLDPEDPEVQISWFVDGKQMQTAKTQPREEQFNGTYRVVSVLPIGHQDWLKGKQFTCKVNNKALGSPIERTISKARGQAHQPSVYVLPPSREELSKNTVSLTCLIKDFFPPDIDVEWQSNGQQEPESKYRTTPPQLDEDGSYFLYSKLSVDKSRWQRGDTFICAVMHEALHNHYTQESLSHSPG
B1 was tested, and the “IC50 (read off the curve); STAT3-SEAP reporter, canine IL-31 stimulation” value (from here on “IC50 (read off the curve)”) [1] was ~1 nM and the “IC50 ratio (IC50 candidate/IC50 VTQ2101)” value [2] was 1.7 ratio.

B2: scFv-HLλcap-Fc-VTQ2102 (scFv-VTQ2102-HLλcap-GS18-Canine IgG2B-LALAPG-Fc) (Fc fusion)
scFv: EVTLQESGPGLVKPSQTLSLTCVASGFSIKSSFIHWLRQRPGRGLEWIGRIDPAFGATEYNPAFQGRFSITADTAKNQASLQLSSMTTEDSAVYYCARYHYAASHFDAWGQGTLVTVSSGSTSGGGSGGGSGGGGSSRIVMTQSPGSLAGSVGESVSINCKSSQSVTNDLTWYQQKPGEAPKVLITYASQRYTGVPARFSGSGYGTDFTLTINNLQAEDVGDYFCQQDYASPFTFGGGTKLTVLGPKRENGRVPRPPDCPKCPAPEAAGGPSVFIFPPKPKDTLLIARTPEVTCVVVDLDPEDPEVQISWFVDGKQMQTAKTQPREEQFNGTYRVVSVLPIGHQDWLKGKQFTCKVNNKALGSPIERTISKARGQAHQPSVYVLPPSREELSKNTVSLTCLIKDFFPPDIDVEWQSNGQQEPESKYRTTPPQLDEDGSYFLYSKLSVDKSRWQRGDTFICAVMHEALHNHYTQESLSHSPG
With B2 the “IC50 ratio (IC50 candidate/IC50 VTQ2101)” value [2] was 1.5 ratio and the “IC50 (read off the curve)” value [3] was ~1 nM.

B3: scFab-Fc-VTQ2101 (scFab-VTQ2101-HLλcap-GS18-Canine IgG2B-LALAPG-Fc) (Fc fusion)
chain: RIVMTQSPGSLAGSVGESVSINCKSSQSVTNDLTWYQQKPGEAPKVLITYASQRYTGVPARFSGSGYGTDFTLTINNLQAEDVGDYFCQQDYASPFTFGQGTKLEIKRNDAQPAVYLFQPSPDQLHTGSASVVCLLNSFYPKDINVKWKVDGVIQDTGIQESVTEQDKDSTYSLSSTLTMSSTEYLSHELYSCEITHKSLPSTLIKSFQRSECGGSSGSGSGSTGTSSSGTGTSAGTTGTSASTSGSGSGGGGGSGGGGSAGGEVTLQESGPGLVKPSQTLSLTCVASGFSIKSSFIHWLRQRPGRGLEWIGRIDPAFGATEYNPAFQGRFSITADTAKNQASLQLSSMTTEDSAVYYCARYHYAASHFDAWGQGTLVTVSSASTTAPSVFPLAPSCGSTSGSTVALACLVSGYFPEPVTVSWNSGSLTSGVHTFPSVLQSSGLYSLSSMVTVPSSRWPSETFTCNVAHPASKTKVDKPVPKRENGRVPRPPDCPKCPAPEAAGGPSVFIFPPKPKDTLLIARTPEVTCVVVDLDPEDPEVQISWFVDGKQMQTAKTQPREEQFNGTYRVVSVLPIGHQDWLKGKQFTCKVNNKALGSPIERTISKARGQAHQPSVYVLPPSREELSKNTVSLTCLIKDFFPPDIDVEWQSNGQQEPESKYRTTPPQLDEDGSYFLYSKLSVDKSRWQRGDTFICAVMHEALHNHYTQESLSHSPG
In the case of B3, the “IC50 (read off the curve)” value [4] is reported as ~0.8 nM and the “IC50 ratio (IC50 candidate/IC50 VTQ2101)” value [2] is reported as 1.3 ratio.
